Source: article PMC4167235

Molecular target: secretory phospholipase A2 (sPLA2) from Crotalus durissus terrificus (Crotalus durissus terrificus) (UniProt P62022)
Test: MALDI-TOF mass spectrometry

## secretory phospholipase A2 (sPLA2) from Crotalus durissus terrificus (from UniProt P62022 17-138) (enzyme)
  stoichiometry N: 2
